Source: US20250144222A1, “Bifunctional Compounds Targeting the Cation-Independent Mannose 6- Phosphate Receptor” (NANOMEDSYN, priority 2022, published 2025)

Legend:
[1] = target: T1, b-CI-M6PR (UniProt P08169); assay: Competitive binding of biotinylated CI-M6PR to adsorbed pentamannose 6-phosphate; conditions: competitive assay with pentamannose 6-phosphate ligand; read-out: Affinity for b-CI-M6PR (IC50) (converted)
T1 construct: fused on or other part: Chemical biotin label (biotin N-hydroxysuccinimide) for streptavidin-peroxidase detection; no fused protein
Experimental: Briefly, CI-M6PR, purified on a phosphomannane-sepharose affinity column, was biotinylated with biotin N-hydroxysuccinimide. […] The b-CI-M6PR bound to adsorbed PMP was then determined using streptavidin conjugated to the peroxidase and its substrate, o-phenylenediamine dihydrochloride (OPD), by optical density measurements. The 100% value corresponds to the concentration of b-CI-M6PR bound to PMP adsorbed in the absence of a competitor.

[2] = Pharmacokinetic profile in mice after single i.v. bolus; format: in vivo, C57BL/6J mice; conditions: single i.v. bolus 4 mg/kg, 21 days
Experimental: Mice were weighed before injection and throughout the experiment to monitor their health. Blood samples taken at 4 and 1, 2, 3, 7, 10, 14, 17 and 21 days post-injection were collected in tubes containing heparin and centrifuged at 3,000 g for 15 min, and the plasma was stored at −20° C. until measurement. Mice were sacrificed 21 days after injection.
The therapeutic antibody was detected using an HRP-conjugated anti-human IgG antibody specific for the Fc fragment, which was then quantified by a colorimetric assay with the OPD substrate and absorbance measure at 450 nm.

IC50 [1]	Compound	adverse clinical events [2]
20 µM	O=C[C@@H](O)[C@@H](O)[C@H](O)[C@H](O)COP(=O)(O)O [M6P, mannose 6-phosphate]	
	adalimumab [mAb2, reference compound]	No adverse clinical events
	infliximab [mAb1, reference compound]	No adverse clinical events
